According to paper PMC8093518, “PprA Protein Inhibits DNA Strand Exchange and ATP Hydrolysis of Deinococcus RecA and Regulates the Recombination in Gamma-Irradiated Cells” (Frontiers in Cell and Developmental Biology, 2021):
Substitutions are numbered along the chain they refer to. Numbers in names are those of the source.

Columns and labels:
[1] = target: T1, Recombinant DrRecA, purified (D. radiodurans, UniProt P42443 1-363); assay: cross-linking; both proteins (approx. 5 μg each) mixed in HEPES buffer pH 7.6 for 10 min, 0.5% glutaraldehyde for 10 min, SDS-PAGE; with or without 1 kb dsDNA, DNase treatment; conditions: both partners purified
T1 construct: RecA of Deinococcus radiodurans, from plasmid pETrecA constructed earlier (Rajpurohit et al., 2016); His tag removed with Factor-Xa; also called pETrecA; source: E. coli BL21(DE3) pLysS, purified (Ni-chelating Sepharose, Q-sepharose, Heparin, Superdex-200)
T1 sequence (looked up): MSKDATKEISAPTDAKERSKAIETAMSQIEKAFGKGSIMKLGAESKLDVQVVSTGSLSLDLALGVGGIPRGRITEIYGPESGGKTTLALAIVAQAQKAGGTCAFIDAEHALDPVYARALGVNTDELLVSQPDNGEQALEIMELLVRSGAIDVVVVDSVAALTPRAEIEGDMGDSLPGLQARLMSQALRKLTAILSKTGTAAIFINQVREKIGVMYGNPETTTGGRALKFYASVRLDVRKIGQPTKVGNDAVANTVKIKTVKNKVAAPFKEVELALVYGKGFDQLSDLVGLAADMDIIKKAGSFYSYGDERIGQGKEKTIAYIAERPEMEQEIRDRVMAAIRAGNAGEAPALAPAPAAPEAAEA

[2] = target: T2, DrRecA (Deinococcus radiodurans R1 (ATCC 13939), UniProt P42443 1-363); assay: EMSA; no PprA; DrRecA 0.5-2 ug; EMSA: 0.2 pmol 32P probe in 10 ul, 10 mM Tris-HCl pH 7.5, 50 mM NaCl, 1 mM DTT, 10 min, 37 C; 12.5% native PAGE; conditions: protein: recombinant, tags: His-tag removed with Factor Xa (pET28a), label: 32P (polynucleotide kinase, 5' end)
T2 sequence: T1 sequence (looked up)

[3] = target: T3, PprA (Deinococcus radiodurans R1 (ATCC 13939), UniProt O32504 1-300); assay: EMSA; PprA 2 ug; EMSA: 0.2 pmol 32P probe in 10 ul, 10 mM Tris-HCl pH 7.5, 50 mM NaCl, 1 mM DTT, 10 min, 37 C; 12.5% native PAGE; conditions: protein: recombinant; tags: His-tag removed with Factor Xa (pET28a); label: 32P (polynucleotide kinase, 5' end)
T3 sequence: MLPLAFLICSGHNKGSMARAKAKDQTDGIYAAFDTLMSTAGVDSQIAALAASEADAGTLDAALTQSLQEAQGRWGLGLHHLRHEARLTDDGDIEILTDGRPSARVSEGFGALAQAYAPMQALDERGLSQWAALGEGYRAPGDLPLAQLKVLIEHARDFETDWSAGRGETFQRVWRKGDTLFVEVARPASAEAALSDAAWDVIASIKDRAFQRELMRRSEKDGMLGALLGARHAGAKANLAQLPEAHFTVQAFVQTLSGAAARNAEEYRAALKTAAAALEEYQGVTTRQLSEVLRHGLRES

[4] = target: T3, PprA; assay: EMSA; PprA 2 ug; band distinct from DrRecA-DNA; EMSA: 0.2 pmol 32P probe in 10 ul, 10 mM Tris-HCl pH 7.5, 50 mM NaCl, 1 mM DTT, 10 min, 37 C; 12.5% native PAGE; conditions: protein: recombinant; tags: His-tag removed with Factor Xa (pET28a); label: 32P (polynucleotide kinase, 5' end); blunt

B1: Recombinant PprA, wild type, purified (natural protein, D. radiodurans, UniProt O32504 1-300, looked up)
chain: T3 sequence
notes: PprA of Deinococcus radiodurans, from plasmid pETpprA constructed earlier (Rajpurohit and Misra, 2013); His tag removed with Factor-Xa; also called PprA^wt; pETpprA; source: E. coli BL21(DE3) pLysS, purified (Ni-chelating Sepharose, Q-sepharose, Heparin, Superdex-200)
[1]
  binding result: binds

B2: PprA R166A mutant (natural protein, D. radiodurans, UniProt O32504 1-300, looked up)
chain: T3 sequence with R166A
notes: PprA of Deinococcus radiodurans with R166A, made with a site-directed mutagenesis kit
[1]
  binding result: binds

B3: PprA R212A mutant (natural protein, D. radiodurans, UniProt O32504 1-300, looked up)
chain: T3 sequence with R212A
notes: PprA of Deinococcus radiodurans with R212A, made with a site-directed mutagenesis kit; also called oligomer mutant
[1]
  binding result: binds

## TAATACAAAATAAGTAAATGAATAAACAGAGAAAATAAAG (ssDNA) [Oligo40-F 40-mer ssDNA]
[2]
  binding result: binds
[3]
  binding result: no binding

B4: Oligo40-F/Oligo40-R 40-mer dsDNA (dsDNA)
DNA 1: TAATACAAAATAAGTAAATGAATAAACAGAGAAAATAAAG
DNA 2: CTTTATTTTCTCTGTTTATTCATTTACTTATTTTGTATTA
[2]; blunt
  binding result: binds
[4]
  binding result: binds
